Data as given in US20230228751 (APTAMER DIAGNOSTICS LIMITED, published 2023).

Tests used:
Test in all cases: BLI
[1] = biological target: SARS-CoV spike S1 subunit (SARS-CoV, UniProt P59594 SEQ:14-667); details: tags: SinoBiological
[2] = biological target: SARS-CoV-2 spike S1 subunit (SARS-CoV-2, UniProt P0DTC2 SEQ:1-670); details: tags: His tag, SinoBiological 40591-V08B1; label: 5'-biotin
SARS-CoV-2 spike RBD = SARS-CoV-2 spike RBD (SARS-CoV-2, UniProt P0DTC2 SEQ:1-223); details: tags: His tag, SinoBiological 40592-V08H

Row | Binder | binding result ([1]; label: 5' biotin) | binding result [2] | binding result (SARS-CoV-2 spike RBD; label: 5' biotin) | binding result ([1]; label: 5'-biotin) | binding result (SARS-CoV-2 spike RBD; label: 5'-biotin)
1 | S1_A4 (ssDNA) DNA: CCAGTGTAGACTACTCAATGCGTGGGAAGGGTGGGCGGGAGCATTGATAACTCGGAGGAGCGTACTATCCACAGGTCAACC | no binding | binds | binds |  | 
2 | S1_A3-B (ssDNA) DNA: CCAGTGTAGACTACTCAATGCCGATGGGTCGGGGGGGTGGGTAGGCATTGATCGCTCCTTTCGTACTATCCACAGGTCAACC |  | binds | binds | no binding | 
3 | S1_B3 (ssDNA) DNA: CCAGTGTAGACTACTCAATGCCGATGGGTCGGGGGGGTGGGTAGGCATTGATTCCTCCTTTCGTACTATCCACAGGTCAACC | no binding | binds | binds |  | 
4 | S1_C8 (ssDNA) DNA: CCAGTGTAGACTACTCAATGCCGATGGGTCGGGGGGGTGGGTAGGCATTGATCATTCCTTTCGTACTATCCACAGGTCAACC |  | binds | binds | no binding | 
5 | S1_A1-A (ssDNA) DNA: CCAGTGTAGACTACTCAATGCCGATGGGTCGGGTGGGTGGGTAGGCATTGATCGCTCCTTCCGTACTATCCACAGGTCAACC | no binding | binds | binds |  | 
6 | S1_A1-B (ssDNA) DNA: CCAGTGTAGACTACTCAATGCGGCTGTGTGACTTGACCTCTGGATATGGGAGGGAGGGCGGGTACTATCCACAGGTCAACC | no binding | binds | binds |  | 
7 | CCAGTGTAGACTACTCAATGCGTGGGAAGGGTGGGTGGGA (ssDNA) [S1_A3_F9] |  | binds |  |  | 
8 | S1_C2 (ssDNA) DNA: CCAGTGTAGACTACTCAATGCGGCTGTGTGACTTGACCTCTGGATATGGGTGGGAGGGATGGGTACTATCCACAGGTCAACC | no binding | binds | binds |  | 
9 | S1_E5 (ssDNA) DNA: CCAGTGTAGACTACTCAATGCCACCTCCTTTTCCGTTTCTTGTATCATGCTACTATCCTGTGTACTATCCACAGGTCAACC | no binding | no binding |  |  | binds
10 | S1_C3-A (ssDNA) DNA: CCAGTGTAGACTACTCAATGCTGTGTTGACTTGATCCTGTGGCATATGGGTGGGAGGGCGGGTACTATCCACAGGTCAACC | no binding | no binding |  |  | binds
11 | S1_B9 (ssDNA) DNA: CCAGTGTAGACTACTCAATGCTGTGTTGACTTGATCCTGTGGTATATGGGTGGGAGGGCGGGTACTATCCACAGGTCAACC | no binding | binds | binds |  | 
12 | S1_B4 (ssDNA) DNA: CCAGTGTAGACTACTCAATGCTGTGTTGACTTGATCCTGTGGTATATGGGTGGGAGGGAGGGTACTATCCACAGGTCAACC | no binding | binds | binds |  | 
13 | S1_A8_F13 (ssDNA) DNA: AATGCTGTGTTGACTTGATCCTGTGGTATATGGGTGGGAGGGTCGGGTACTATCCACAGGTCAAC |  | binds |  |  | 
14 | S1_A9 (ssDNA) DNA: CCAGTGTAGACTTACACCTGCAGTGTTCACGAGGGCCGGCGGTATATGGGCGGTTGATACGAGTACTATCCACAGGTCAACC | no binding | binds | binds |  | 
15 | CCAGTGTAGACTACTCAATGCGTGGGAAGGGTGGGTGGGAGCATTGAT (ssDNA) [S1_A3_F10] |  | binds |  |  | 
16 | GGTATATGGGTGGGAGGGTCGGGT (ssDNA) [S1_A8_F22] |  | binds |  |  | 
17 | S1_A6_F14 (ssDNA) DNA: ACTTGACCTTGGGTTATGGGTTTGGGCGGGAGGGTACTATCCACAGGTCAACC |  | binds |  |  | 
18 | ACTTGATCCTGTGGTATATGGGTGGGAGGGTCGGGT (ssDNA) [S1_A8_F20] |  | binds |  |  | 

Row | Binder | binding result ([1]; label: 5' biotin) | binding result [2] | binding result (SARS-CoV-2 spike RBD; label: 5' biotin) | binding result ([1]; label: 5'-biotin) | binding result (SARS-CoV-2 spike RBD; label: 5'-biotin)
19 | S1_B11-A (ssDNA) DNA: CCAGTGTAGACTACTCAATGCGTGTGGTGACCTTGACCTTGGATTATGGGTTTGGGCGGGAGGGTACTATCCACAGGTCAACC | no binding | binds | binds |  | 
20 | S1_C1-A (ssDNA) DNA: CCAGTGTAGACTACTCAATGCTGTGTTGACTTGATCCTGTGGTATTTGGGTGGGAGGGGCGGGTACTATCCACAGGTCAACC |  | binds | binds | no binding | 
21 | S1_B12-B (ssDNA) DNA: CCAGTGTAGACTACTCAATGCTGTGTTGACTTGATCCTGTGGTATATGGGTGGGAGGGATGGGTACTATCCACAGGTCAACC | no binding | no binding |  |  | binds
22 | GTATATGGGTGGGAGGGTCGGGTACTATCCACAGGTCAAC (ssDNA) [S1_A8_F2] |  | binds |  |  | 
23 | S1_D6 (ssDNA) DNA: CCAGTGTAGACTACTCAATGCTACTGACTCATCTGCCGAATCCAAACCCGACCAGTCCACGGTACTATCCACAGGTCAACC | no binding | no binding |  |  | binds
24 | S1_C1-B (ssDNA) DNA: CCAGTGTAGACTACTCAATGCCGCTTCTCGACCGCCCCTTGTTTTGGTTCTTTTGTCCGTAGTACTATCCACAGGTCAACC | no binding | binds | binds |  | 
25 | S1_A6_F12 (ssDNA) DNA: CCAGTGTAGACTACTCAATGCTGTTATGACTTGACCTTGGGTTATGGGTTTGGGCGGGAGGGTA |  | binds |  |  | 
26 | S1_A3_F12 (ssDNA) DNA: CCAGTGTAGACTACTCAATGCGTGGGAAGGGTGGGTGGGAGCATTGATAACTCGGAGGAGTGTA |  | binds |  |  | 
27 | AATGCGTGGGAAGGGTGGGTGGGAG (ssDNA) [S1_A3_F17] |  | binds |  |  | 
28 | S1_E6 (ssDNA) DNA: CCAGTGTAGACTACTCAATGCCCAGTGGCGAGCGACTTTTTATGTAAGAACATCGATTTTCCATGGTACTATCCACAGGTCAACC | no binding | no binding |  |  | binds
29 | S1_A3_F11 (ssDNA) DNA: CCAGTGTAGACTACTCAATGCGTGGGAAGGGTGGGTGGGAGCATTGATAACTC |  | binds |  |  | 
30 | S1_E3 (ssDNA) DNA: CCAGTGTAGACTACTCAATGCCGATGGGTCGGGTGGGTGGGTAGGCATTGATCGCTCCTCCGTACTATCCACAGGTCAACC |  | binds |  | no binding | binds
31 | S1_B1 (ssDNA) DNA: CCAGTGTAGACTACTCAATGCCGATGGGTCGGGTGGGTGGGTAGGCATTGATCGCTCCTCAGTACTATCCACAGGTCAACC | no binding | binds | binds |  | 
32 | S1_A8_F14 (ssDNA) DNA: ACTTGATCCTGTGGTATATGGGTGGGAGGGTCGGGTACTATCCACAGGTCAAC |  | binds |  |  | 
33 | S1_A6_F13 (ssDNA) DNA: AATGCTGTTATGACTTGACCTTGGGTTATGGGTTTGGGCGGGAGGGTACTATCCACAGGTCAACC |  | binds |  |  | 
34 | S1_A12 (ssDNA) DNA: CCAGTGTAGACTACTCAATGCCGTGTGGTGACCTTGATCCTGTGGTATATGGGTGGGAGGGGCGGGTACTATCCACAGGTCAACC | no binding | binds | binds |  | 
35 | S1_D11-B (ssDNA) DNA: CCAGTGTAGACTACTCAATGCCGGCCGGGAGGGAGGGGTGGGTAAAGCCGCGCAACATATAGTACTATCCACAGGTCAACC |  | binds |  | binds | binds
36 | S1_A8_F12 (ssDNA) DNA: CCAGTGTAGACTACTCAATGCTGTGTTGACTTGATCCTGTGGTATATGGGTGGGAGGGTCGGGT |  | binds |  |  | 
